In the supplement of paper PMC10567573:

B1: KRT71 (parent)
chain: FGSRSLYSLGGVRSLNVASGSGKS
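Also: lentivirally expressed fusions sorted by FACS into six bins by GFP to DsRed ratio, PSI derived from sequencing read proportions per bin multiplied by bin number.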

Variants of: B1
Assay: protein stability index of a GFP-peptide fusion (GPS, HEK-293T) (PSI 1-6); higher = more stable
Details: c terminus: a fixed tail appended
Work on FGSRSLYGLGGVRSLNVASGSGKS [S8G] yielded a protein stability index of 2. FGSRSLYCLGGVRSLNVASGSGKS [S8C] showed a protein stability index of 2.1. For FGSRSLYHLGGVRSLNVASGSGKS [S8H], the protein stability index was 2.89. FGSRSLYALGGVRSLNVASGSGKS [S8A] gave a protein stability index of 2.17. For FGSRSLYDLGGVRSLNVASGSGKS [S8D], the protein stability index was 3.44. Variant FGSRSLYFLGGVRSLNVASGSGKS [S8F] has a protein stability index of 1.21. Variant FGSRSLYELGGVRSLNVASGSGKS [S8E] has a protein stability index of 2.75. FGYRSLYSLGGVRSLNVASGSGKS [S3Y] showed a protein stability index of 2.7. FGNRSLYSLGGVRSLNVASGSGKS [S3N] showed a protein stability index of 1.26. Work on FGWRSLYSLGGVRSLNVASGSGKS [S3W] yielded a protein stability index of 1.59. For FGMRSLYSLGGVRSLNVASGSGKS [S3M], the protein stability index was 2.21. For FGLRSLYSLGGVRSLNVASGSGKS [S3L], the protein stability index was 2.47. In the case of FGVRSLYSLGGVRSLNVASGSGKS [S3V], the protein stability index is reported as 2.23. For FGTRSLYSLGGVRSLNVASGSGKS [S3T], the protein stability index was 1.95. FGKRSLYSLGGVRSLNVASGSGKS [S3K] showed a protein stability index of 1.78. FGPRSLYSLGGVRSLNVASGSGKS [S3P] showed a protein stability index of 2.71. Work on FGQRSLYSLGGVRSLNVASGSGKS [S3Q] yielded a protein stability index of 2.09. With FGRRSLYSLGGVRSLNVASGSGKS [S3R] the protein stability index was 1.97. For FGSRSNYSLGGVRSLNVASGSGKS [L6N], the protein stability index was 2.76. Work on FGSRSYYSLGGVRSLNVASGSGKS [L6Y] yielded a protein stability index of 1.48. Variant FGSRSKYSLGGVRSLNVASGSGKS [L6K] has a protein stability index of 2.91. FGSRSVYSLGGVRSLNVASGSGKS [L6V] showed a protein stability index of 1.62. Variant FGSRSGYSLGGVRSLNVASGSGKS [L6G] has a protein stability index of 1.77. FGSRSDYSLGGVRSLNVASGSGKS [L6D] gave a protein stability index of 3.7. FGSRSMYSLGGVRSLNVASGSGKS [L6M] showed a protein stability index of 1.93. For FGSRSPYSLGGVRSLNVASGSGKS [L6P], the protein stability index was 1.74. In the case of FGSRSHYSLGGVRSLNVASGSGKS [L6H], the protein stability index is reported as 2.33. In the case of FGSRSAYSLGGVRSLNVASGSGKS [L6A], the protein stability index is reported as 1.67. With FGSRSTYSLGGVRSLNVASGSGKS [L6T] the protein stability index was 3.13. FGSRSIYSLGGVRSLNVASGSGKS [L6I] gave a protein stability index of 2.29. In the case of FGSRSCYSLGGVRSLNVASGSGKS [L6C], the protein stability index is reported as 2.04. Variant FGSRSWYSLGGVRSLNVASGSGKS [L6W] has a protein stability index of 2.94. FGSRSSYSLGGVRSLNVASGSGKS [L6S] gave a protein stability index of 2.13. Work on FGSRSEYSLGGVRSLNVASGSGKS [L6E] yielded a protein stability index of 3.14. Variant FGSRSQYSLGGVRSLNVASGSGKS [L6Q] has a protein stability index of 2.62. FGSRSRYSLGGVRSLNVASGSGKS [L6R] gave a protein stability index of 2.65. Variant FGSRSFYSLGGVRSLNVASGSGKS [L6F] has a protein stability index of 3.13. For FGSPSLYSLGGVRSLNVASGSGKS [R4P], the protein stability index was 1.35. With FGSHSLYSLGGVRSLNVASGSGKS [R4H] the protein stability index was 2.15. Variant FGSCSLYSLGGVRSLNVASGSGKS [R4C] has a protein stability index of 2.35. With FGSGSLYSLGGVRSLNVASGSGKS [R4G] the protein stability index was 2.56. With FGSWSLYSLGGVRSLNVASGSGKS [R4W] the protein stability index was 1.62. With FGSISLYSLGGVRSLNVASGSGKS [R4I] the protein stability index was 1.7. Work on FGSTSLYSLGGVRSLNVASGSGKS [R4T] yielded a protein stability index of 2. FGSDSLYSLGGVRSLNVASGSGKS [R4D] showed a protein stability index of 2.44. FGSQSLYSLGGVRSLNVASGSGKS [R4Q] gave a protein stability index of 2.5. FGSNSLYSLGGVRSLNVASGSGKS [R4N] gave a protein stability index of 2.12. FGSLSLYSLGGVRSLNVASGSGKS [R4L] showed a protein stability index of 1.75. In the case of FGSFSLYSLGGVRSLNVASGSGKS [R4F], the protein stability index is reported as 1.58. Work on FGSVSLYSLGGVRSLNVASGSGKS [R4V] yielded a protein stability index of 1.52. Variant FGSASLYSLGGVRSLNVASGSGKS [R4A] has a protein stability index of 2.71. With FGSSSLYSLGGVRSLNVASGSGKS [R4S] the protein stability index was 2.31. Work on FGSESLYSLGGVRSLNVASGSGKS [R4E] yielded a protein stability index of 2.44. Variant FGSYSLYSLGGVRSLNVASGSGKS [R4Y] has a protein stability index of 2.77. In the case of FGSMSLYSLGGVRSLNVASGSGKS [R4M], the protein stability index is reported as 1.88. FGSKSLYSLGGVRSLNVASGSGKS [R4K] gave a protein stability index of 2.14. Variant FGSRSLISLGGVRSLNVASGSGKS [Y7I] has a protein stability index of 2.32. For FGSRSLVSLGGVRSLNVASGSGKS [Y7V], the protein stability index was 2.83. In the case of FGSRSLASLGGVRSLNVASGSGKS [Y7A], the protein stability index is reported as 3.46. With FGSRSLFSLGGVRSLNVASGSGKS [Y7F] the protein stability index was 3.01. FGSRSLESLGGVRSLNVASGSGKS [Y7E] gave a protein stability index of 4.17. Work on FGSRSLHSLGGVRSLNVASGSGKS [Y7H] yielded a protein stability index of 2.98. FGSRSLNSLGGVRSLNVASGSGKS [Y7N] showed a protein stability index of 3.26. Variant FGSRSLKSLGGVRSLNVASGSGKS [Y7K] has a protein stability index of 3.02. For FGSRSLLSLGGVRSLNVASGSGKS [Y7L], the protein stability index was 1.6. Work on FGSRSLSSLGGVRSLNVASGSGKS [Y7S] yielded a protein stability index of 3.89. FGSRSLMSLGGVRSLNVASGSGKS [Y7M] gave a protein stability index of 2.54. Work on FGSRSLPSLGGVRSLNVASGSGKS [Y7P] yielded a protein stability index of 3.75. For FGSRSLWSLGGVRSLNVASGSGKS [Y7W], the protein stability index was 2.05. In the case of FGSRSLQSLGGVRSLNVASGSGKS [Y7Q], the protein stability index is reported as 3.91. For FGSRSLRSLGGVRSLNVASGSGKS [Y7R], the protein stability index was 3.57. For FGSRSLTSLGGVRSLNVASGSGKS [Y7T], the protein stability index was 2.55. With FGSRSLCSLGGVRSLNVASGSGKS [Y7C] the protein stability index was 2.48. FGSRSLDSLGGVRSLNVASGSGKS [Y7D] gave a protein stability index of 3.53. In the case of FGSRSLGSLGGVRSLNVASGSGKS [Y7G], the protein stability index is reported as 2.81. Variant FGSRGLYSLGGVRSLNVASGSGKS [S5G] has a protein stability index of 1.6. Work on FGSRNLYSLGGVRSLNVASGSGKS [S5N] yielded a protein stability index of 1.99. FGSRELYSLGGVRSLNVASGSGKS [S5E] showed a protein stability index of 2.77. FGSRLLYSLGGVRSLNVASGSGKS [S5L] gave a protein stability index of 2.15. Work on FGSRALYSLGGVRSLNVASGSGKS [S5A] yielded a protein stability index of 2.35. With FGSRYLYSLGGVRSLNVASGSGKS [S5Y] the protein stability index was 1.36. Work on FGSRDLYSLGGVRSLNVASGSGKS [S5D] yielded a protein stability index of 2.31. With FGSRTLYSLGGVRSLNVASGSGKS [S5T] the protein stability index was 1.64. For FGSRILYSLGGVRSLNVASGSGKS [S5I], the protein stability index was 2.19. FGSRCLYSLGGVRSLNVASGSGKS [S5C] showed a protein stability index of 1.5. Variant FGSRVLYSLGGVRSLNVASGSGKS [S5V] has a protein stability index of 1.9. FGSRWLYSLGGVRSLNVASGSGKS [S5W] gave a protein stability index of 2.33. In the case of FGSRMLYSLGGVRSLNVASGSGKS [S5M], the protein stability index is reported as 1.62. FGSRHLYSLGGVRSLNVASGSGKS [S5H] gave a protein stability index of 2.24. Work on FGSRQLYSLGGVRSLNVASGSGKS [S5Q] yielded a protein stability index of 2.16. Variant FGSRRLYSLGGVRSLNVASGSGKS [S5R] has a protein stability index of 2.77. Work on FGSRFLYSLGGVRSLNVASGSGKS [S5F] yielded a protein stability index of 1.95. FGSRKLYSLGGVRSLNVASGSGKS [S5K] gave a protein stability index of 2.65. FGSRPLYSLGGVRSLNVASGSGKS [S5P] showed a protein stability index of 2.91.
